In series [1] the test system is Venus-thrombin-LUMP (LUMP fused to Venus via an 11-residue linker ASLVPRGSRGS that harbors a thrombin cleavage site).
In series [2] the test system is mRuby-thrombin-fLov2 (fLov2 fused to mRuby via an 11-residue linker ASLVPRGSRGS that harbors a thrombin cleavage site).

With thrombin protease, in series [1], the “FA value of LUMP in the intact substrate” value is reported as “FA values for the 51-kDa LUMP-Venus substrate of 0.255±0.003”, the “FA value of LUMP in the proteolyzed sensor” value was “decreases to 0.166±0.001 in the proteolyzed sensor” and the “donor/acceptor ratio of fluorescence emission during proteolysis” value is recorded as “donor/acceptor ratio increasing ~4.7-fold”. For the same substance, the “fluorescence emission spectra against time after addition of thrombin” value in series [2] is “dramatic increase in fLov2 fluorescence and attenuation of the sensitized mRuby fluorescence”.

For the origin of these results see patent publication US20160146827.
